Reference: PMC4374980

Molecular target: cysteine-free green-absorbing Proteorhodopsin
Assay: cross-linking

stoichiometry N: 6
Substance: cysteine-free green-absorbing Proteorhodopsin (natural protein)
